Reference: paper PMC4303762, “Identification of PLXDC1 and PLXDC2 as the transmembrane receptors for the multifunctional factor PEDF” (eLife, 2014)

Molecular target: the molecule itself
Assay: cross-linking; membranes of HEK293 cells transfected with the receptor, in PBS; disulfide bond formation catalysed by 0.5 mM Cu (II) phenanthroline, 5 min; non-reducing and reducing SDS-PAGE, Western blot for the receptor

B1: PLXDC1 in membranes of transfected HEK293 cells (copper phenanthroline crosslinking) (receptor, human, UniProt Q8IUK5 19-500, looked up)
chain: LSPQPGAGHDEGPGSGWAAKGTVRGWNRRARESPGHVSEPDRTQLSQDLGGGTLAMDTLPDNRTRVVEDNHSYYVSRLYGPSEPHSRELWVDVAEANRSQVKIHTILSNTHRQASRVVLSFDFPFYGHPLRQITIATGGFIFMGDVIHRMLTATQYVAPLMANFNPGYSDNSTVVYFDNGTVFVVQWDHVYLQGWEDKGSFTFQAALHHDGRIVFAYKEIPMSVPEISSSQHPVKTGLSDAFMILNPSPDVPESRRRSIFEYHRIELDPSKVTSMSAVEFTPLPTCLQHRSCDACMSSDLTFNCSWCHVLQRCSSGFDRYRQEWMDYGCAQEAEGRMCEDFQDEDHDSASPDTSFSPYDGDLTTTSSSLFIDSLTTEDDTKLNPYAGGDGLQNNLSPKTKGTPVHLGTIVGIVLAVLLVAAIILAGIYINGHPTSNAALFFIERRPHHWPAMKFRSHPDHSTYAEVEPSGHEKEGFMEAEQC
notes: human PLXDC1 with its cytoplasmic tail ending in the conserved cysteine; Detected by a Western blot for the receptor; also called the receptor; source: HEK293, transfected, in membrane preparation
stoichiometry N: 2
